Reference: doi:10.1101/2024.05.17.594718 (bioRxiv, 2024)

Target: LysP-GFP (Pseudomonas aeruginosa PAO1 LysP fused to GFP-His8) (Pseudomonas aeruginosa strain PAO1, UniProt Q9HVG3)
Experiment: GFP thermal shift

B1: nanobody Nb5755 (VHH)
VHH: QVQLQESGGGLVQGGSLRLSCAASGRTFSIYGMAWVRQASGKEREFVAAMPRGGGTTNYADSVKGRFSISRDNAKNTVDLQMNSLKPEDTAVYYCVADRGFTLRLGIQHDYWGQGTQVTVSS
Q: For B1, which “increase in melting temperature” value is on record?
A: 20 °C
